Results taken from patent US20230270823A1 (WUXI BIOLOGICS IRELAND, published 2023).
Changes are numbered by the printed parent chain.

T1: IL-15Rβ/γ chain (IL-2Rβ and common gamma chain) on human CD8+ T cells and NK cells (human, UniProt P14784 27-551; P31785 23-369)
T1 sequence (looked up) 1: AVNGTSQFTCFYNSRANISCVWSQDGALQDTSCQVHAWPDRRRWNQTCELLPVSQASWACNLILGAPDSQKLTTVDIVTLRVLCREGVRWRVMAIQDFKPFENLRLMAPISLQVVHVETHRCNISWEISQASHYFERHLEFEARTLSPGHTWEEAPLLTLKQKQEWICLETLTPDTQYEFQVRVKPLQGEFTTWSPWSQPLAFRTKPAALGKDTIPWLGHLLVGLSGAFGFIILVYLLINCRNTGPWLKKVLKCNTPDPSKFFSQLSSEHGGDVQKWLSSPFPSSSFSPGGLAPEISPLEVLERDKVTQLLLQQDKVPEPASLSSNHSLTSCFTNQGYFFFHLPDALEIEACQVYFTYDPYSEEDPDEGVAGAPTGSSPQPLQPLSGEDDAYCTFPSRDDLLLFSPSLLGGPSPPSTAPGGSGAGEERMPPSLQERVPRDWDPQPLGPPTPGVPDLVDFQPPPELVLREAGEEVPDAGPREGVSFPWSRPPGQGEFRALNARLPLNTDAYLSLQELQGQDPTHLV
T1 sequence (looked up) 2: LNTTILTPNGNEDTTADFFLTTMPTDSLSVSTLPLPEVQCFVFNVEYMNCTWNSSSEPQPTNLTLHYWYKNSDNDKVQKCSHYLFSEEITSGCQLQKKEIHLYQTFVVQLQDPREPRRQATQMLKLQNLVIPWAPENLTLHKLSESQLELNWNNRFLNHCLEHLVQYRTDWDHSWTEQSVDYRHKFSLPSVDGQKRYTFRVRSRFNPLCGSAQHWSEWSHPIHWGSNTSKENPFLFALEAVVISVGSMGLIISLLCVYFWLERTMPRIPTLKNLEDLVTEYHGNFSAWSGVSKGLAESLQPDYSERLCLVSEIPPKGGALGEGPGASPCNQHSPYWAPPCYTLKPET

B1: W327151-TXU1.P1-V0001.uIgG1v805 (Fc fusion)
chain 1: NWVNVISADLKKIEDLIQSMHIDATLYTESDVHPSCKVTAMKCFLLELQVISLESGDASIHDTVENLIILANNSLSSNGNVTESGCKECEELEEKNIKEFLQSFVHIVQMFINTSGGGGSEPKSSDKTHTCPPCPAPELLRGPSVFLFPPKPKDTLYITREPEVTCVVVDVSHEDPEVKFNWYVDGVEVHNAKTKPREEQYNSTYRVVSVLTVLHQDWLNGKEYKCKVSNKARPAPIEKTISKAKGQPREPQVYTLPPCREEMTKNQVSLWCLVKGFYPSDIAVEWESNGQPENNYKTTPPVLDSDGSFFLYSKLTVDKSRWQQGNVFSCSVMHEALHNHYTQKSLSLSPG
chain 2: ITCPPPMSVEHADIWVKSYSLYSRERYICNSGFKRKAGTSSLTECVLNKATNVAHWTTPSLKCIRGGGGSEPKSSDKTHTCPPCPAPELLRGPSVFLFPPKPKDTLYITREPEVTCVVVDVSHEDPEVKFNWYVDGVEVHNAKTKPREEQYNSTYRVVSVLTVLHQDWLNGKEYKCKVSNKARPAPIEKTISKAKGQPREPQVCTLPPSREEMTKNQVSLSCAVKGFYPSDIAVEWESNGQPENNYKTTPPVLDSDGSFFLVSKLTVDKSRWQQGNVFSCSVMHEALHNHYTQKSLSLSPG
B2: W327151-TXU1.P1-V0002.uIgG1v805 (Fc fusion)
chain 1: B1 chain 1 with A8D, D9A
chain 2: B1 chain 2
B3: W327151-TXU1.P1-V0004.uIgG1v805 (Fc fusion)
chain 1: B1 chain 1 with A8D, D9L, L10K, K11A
chain 2: B1 chain 2
B4: W327151-TXU1.P1-V0005.uIgG1v805 (Fc fusion)
chain 1: NWVNVISDLKKIEDLIQSMHIDATLYTESDVHPSCKVTAMKCFLLELQVISLESGDASIHDTVEANLIILANNSLSSNGNVTESGCKECEELEEKNIKEFLQSFVHIVQMFINTSGGGGSEPKSSDKTHTCPPCPAPELLRGPSVFLFPPKPKDTLYITREPEVTCVVVDVSHEDPEVKFNWYVDGVEVHNAKTKPREEQYNSTYRVVSVLTVLHQDWLNGKEYKCKVSNKARPAPIEKTISKAKGQPREPQVYTLPPCREEMTKNQVSLWCLVKGFYPSDIAVEWESNGQPENNYKTTPPVLDSDGSFFLYSKLTVDKSRWQQGNVFSCSVMHEALHNHYTQKSLSLSPG
chain 2: B1 chain 2
B5: W327151-TXU1.P1-V0006.uIgG1v805 (Fc fusion)
chain 1: B4 chain 1 with A65N, N66A
chain 2: B1 chain 2

What was measured:
[1] = molecular target: T1, IL-15Rβ/γ chain (IL-2Rβ and common …); assay: cell-based or functional assay
[2] = molecular target: IL-15Rβ/γ chain (IL-2Rβ and common gamma chain) on cyno CD8+ T cells and NK cells (cynomolgus monkey); assay: cell-based or functional assay

| Binder | EC50, % Ki67 expression, human CD8+ T cells [1] | EC50, % Ki67 expression, human NK cells [1] | Fold reduced (EC50, % Ki67), human CD8+ T cells [1] | Fold reduced (EC50, % Ki67), human NK cells [1] | EC50, % Ki67 expression, cyno donor 1 CD8+ T cells [2] | EC50, % Ki67 expression, cyno donor 1 NK cells [2] | Fold reduced (EC50, % Ki67), cyno donor 1 CD8+ T cells [2] | Fold reduced (EC50, % Ki67), cyno donor 1 NK cells [2] | EC50, % Ki67 expression, cyno donor 2 CD8+ T cells [2] | EC50, % Ki67 expression, cyno donor 2 NK cells [2] | Fold reduced (EC50, % Ki67), cyno donor 2 CD8+ T cells [2] | Fold reduced (EC50, % Ki67), cyno donor 2 NK cells [2] |
| --- | --- | --- | --- | --- | --- | --- | --- | --- | --- | --- | --- | --- |
| B1 | 338 nM | 29.2 nM | 1840 fold | 1390 fold | 29.2 nM | 65.6 nM | 325 fold | 729 fold |  |  |  |  |
| B2 | 174 nM | 19.1 nM | 947 fold | 911 fold |  |  |  |  |  |  |  |  |
| B3 | 22.5 nM | 6.72 nM | 122 fold | 320 fold | 3.37 nM | 10.3 nM | 37 fold | 115 fold |  |  |  |  |
| B4 | 352 nM | 106 nM | 1910 fold | 5030 fold |  |  |  |  | 100 nM | 26.3 nM | 5890 fold | 3290 fold |
| B5 | 13.5 nM | 1.58 nM | 73.5 fold | 75.1 fold |  |  |  |  | 2.59 nM | 1.04 nM | 153 fold | 130 fold |
